The target of experiment [1] is T1, C-terminal domain (CTD) of human PTPRG (amino acid residues 349~736 of human PTPRG) (human, UniProt P23470 349-736).
T1 construct: also called hPTPRG-CTD; human PTPRG carboxyl domain
T1 sequence: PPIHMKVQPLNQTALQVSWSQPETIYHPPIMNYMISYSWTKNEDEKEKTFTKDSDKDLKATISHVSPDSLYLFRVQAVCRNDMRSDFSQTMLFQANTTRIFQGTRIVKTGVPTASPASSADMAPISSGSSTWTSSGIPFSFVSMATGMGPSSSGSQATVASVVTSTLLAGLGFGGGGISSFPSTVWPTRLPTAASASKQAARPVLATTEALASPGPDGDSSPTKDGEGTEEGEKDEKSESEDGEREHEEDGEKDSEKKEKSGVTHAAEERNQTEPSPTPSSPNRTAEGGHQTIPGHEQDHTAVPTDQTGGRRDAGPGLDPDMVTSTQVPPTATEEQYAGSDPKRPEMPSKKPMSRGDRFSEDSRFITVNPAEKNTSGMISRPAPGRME
In words: ELISA, one condition per Fab and antigen; y axis 0 to 1.8 without name or unit. On the technique in general: In an ELISA, binding on a coated surface is turned into a signal by an enzyme label.

Experiment [2] deals with T2, mouse PTPRG ECD (amino acid residues 20-733 of mouse PTPRG) fused to hFc (mouse, UniProt Q05909 20-733).
T2 construct: Produced in-house; also called mPTPRG-ECD; Mouse PTPRG-ECD-hFc; not shown: human Fc (hFc)
T2 sequence: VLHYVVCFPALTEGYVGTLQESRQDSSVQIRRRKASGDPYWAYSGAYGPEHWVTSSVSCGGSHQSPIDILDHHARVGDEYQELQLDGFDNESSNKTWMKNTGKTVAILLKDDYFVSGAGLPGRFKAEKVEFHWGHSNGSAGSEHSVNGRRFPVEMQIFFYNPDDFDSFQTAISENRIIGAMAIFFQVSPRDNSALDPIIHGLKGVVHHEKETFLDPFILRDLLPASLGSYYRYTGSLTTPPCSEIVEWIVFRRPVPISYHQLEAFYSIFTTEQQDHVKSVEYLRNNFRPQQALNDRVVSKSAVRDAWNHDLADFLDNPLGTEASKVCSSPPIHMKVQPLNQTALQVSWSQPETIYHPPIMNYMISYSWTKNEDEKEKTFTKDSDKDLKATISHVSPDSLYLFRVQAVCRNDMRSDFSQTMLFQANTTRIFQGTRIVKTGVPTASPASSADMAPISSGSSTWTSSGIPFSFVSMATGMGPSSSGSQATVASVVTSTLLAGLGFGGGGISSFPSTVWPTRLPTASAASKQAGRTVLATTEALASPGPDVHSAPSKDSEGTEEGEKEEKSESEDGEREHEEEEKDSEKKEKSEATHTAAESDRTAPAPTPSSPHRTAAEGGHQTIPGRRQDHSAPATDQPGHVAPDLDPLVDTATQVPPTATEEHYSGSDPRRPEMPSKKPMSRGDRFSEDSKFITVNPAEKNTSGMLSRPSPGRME
Described as above.

For experiment [3], the target named is T3, human PTPRG on the cell surface (U937 cells, HEL cells) (human, UniProt P23470 20-1445).
T3 construct: Endogenous PTPRG of human AML cell lines
T3 sequence (P23470 20-1445): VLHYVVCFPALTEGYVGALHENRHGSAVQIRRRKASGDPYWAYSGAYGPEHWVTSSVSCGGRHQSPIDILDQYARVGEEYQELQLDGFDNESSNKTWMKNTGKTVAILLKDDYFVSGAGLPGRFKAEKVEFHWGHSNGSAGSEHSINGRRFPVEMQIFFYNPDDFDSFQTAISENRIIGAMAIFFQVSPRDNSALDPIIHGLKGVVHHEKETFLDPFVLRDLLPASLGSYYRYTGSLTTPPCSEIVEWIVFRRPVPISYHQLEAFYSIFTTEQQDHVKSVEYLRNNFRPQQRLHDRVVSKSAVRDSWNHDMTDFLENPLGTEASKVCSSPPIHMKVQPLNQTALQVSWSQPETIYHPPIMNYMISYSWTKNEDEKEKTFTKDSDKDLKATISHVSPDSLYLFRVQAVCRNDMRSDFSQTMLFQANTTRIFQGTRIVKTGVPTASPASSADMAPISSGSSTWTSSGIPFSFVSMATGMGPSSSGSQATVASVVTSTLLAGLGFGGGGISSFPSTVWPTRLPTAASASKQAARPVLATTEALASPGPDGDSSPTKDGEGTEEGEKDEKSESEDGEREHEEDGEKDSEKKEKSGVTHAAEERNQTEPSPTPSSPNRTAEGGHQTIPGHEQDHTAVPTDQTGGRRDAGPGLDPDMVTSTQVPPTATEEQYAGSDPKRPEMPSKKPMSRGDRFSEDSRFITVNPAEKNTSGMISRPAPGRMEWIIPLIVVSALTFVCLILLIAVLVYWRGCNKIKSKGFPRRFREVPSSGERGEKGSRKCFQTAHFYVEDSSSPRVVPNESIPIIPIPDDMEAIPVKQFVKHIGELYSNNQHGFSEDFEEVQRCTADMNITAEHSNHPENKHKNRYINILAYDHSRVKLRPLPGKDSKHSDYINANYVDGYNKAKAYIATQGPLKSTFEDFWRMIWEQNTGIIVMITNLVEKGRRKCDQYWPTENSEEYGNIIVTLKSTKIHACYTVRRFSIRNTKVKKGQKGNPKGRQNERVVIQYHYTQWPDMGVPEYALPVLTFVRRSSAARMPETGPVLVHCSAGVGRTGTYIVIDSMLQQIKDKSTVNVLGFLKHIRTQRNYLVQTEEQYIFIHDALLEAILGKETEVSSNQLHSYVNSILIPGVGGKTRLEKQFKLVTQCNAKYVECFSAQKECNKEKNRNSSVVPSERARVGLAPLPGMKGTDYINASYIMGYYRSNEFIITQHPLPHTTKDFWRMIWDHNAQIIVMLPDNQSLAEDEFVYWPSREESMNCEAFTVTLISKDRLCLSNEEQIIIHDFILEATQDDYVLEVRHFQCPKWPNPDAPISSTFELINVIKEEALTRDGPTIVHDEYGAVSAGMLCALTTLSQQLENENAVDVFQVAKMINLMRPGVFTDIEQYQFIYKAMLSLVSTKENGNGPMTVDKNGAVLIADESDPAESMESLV
In words: flow cytometry on whole HEL cells, screen of the 28 clones (Ctrl row = 0); PTPRG is named as the antigen on HEL cells only in the later examples. (In general: In flow cytometry, cells or beads pass a laser one at a time.)

In experiment [4] the target is T4, human CD105-ECD: amino acid residues Met 1-Gly 586 of human CD105 (Sino bio: Cat: 10149-H02H) (human, UniProt P17813 26-586).
T4 construct: Bought; also called hCD105-ECD-hFc; hCD105-hFc
T4 sequence: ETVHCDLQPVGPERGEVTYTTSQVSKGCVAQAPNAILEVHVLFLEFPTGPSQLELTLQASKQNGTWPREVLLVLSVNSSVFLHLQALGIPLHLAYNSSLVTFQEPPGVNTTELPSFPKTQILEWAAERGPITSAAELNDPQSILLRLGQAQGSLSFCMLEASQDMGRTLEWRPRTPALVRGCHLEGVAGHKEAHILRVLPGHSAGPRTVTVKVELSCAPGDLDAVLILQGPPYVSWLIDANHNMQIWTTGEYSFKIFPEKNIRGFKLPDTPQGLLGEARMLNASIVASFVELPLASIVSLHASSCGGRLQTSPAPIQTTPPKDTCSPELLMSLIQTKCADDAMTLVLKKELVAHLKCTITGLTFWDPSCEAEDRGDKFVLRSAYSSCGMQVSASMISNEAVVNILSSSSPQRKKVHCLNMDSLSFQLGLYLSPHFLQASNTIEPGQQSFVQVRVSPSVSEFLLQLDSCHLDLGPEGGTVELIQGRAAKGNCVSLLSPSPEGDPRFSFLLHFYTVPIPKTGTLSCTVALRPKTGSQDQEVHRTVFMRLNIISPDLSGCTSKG
In words: ELISA, absorbance at 405 nm, one condition per Fab and antigen.

For experiment [5], the target named is T5, human Nectin-2 extracellular domain (amino acid residues 1-360 of human Nectin-2) fused to hFc (human, UniProt Q92692 32-360).
T5 construct: Bought; also called hNectin-2-ECD-hFc; NECTIN2-ECD-hFc; not shown: human Fc (hFc)
T5 sequence: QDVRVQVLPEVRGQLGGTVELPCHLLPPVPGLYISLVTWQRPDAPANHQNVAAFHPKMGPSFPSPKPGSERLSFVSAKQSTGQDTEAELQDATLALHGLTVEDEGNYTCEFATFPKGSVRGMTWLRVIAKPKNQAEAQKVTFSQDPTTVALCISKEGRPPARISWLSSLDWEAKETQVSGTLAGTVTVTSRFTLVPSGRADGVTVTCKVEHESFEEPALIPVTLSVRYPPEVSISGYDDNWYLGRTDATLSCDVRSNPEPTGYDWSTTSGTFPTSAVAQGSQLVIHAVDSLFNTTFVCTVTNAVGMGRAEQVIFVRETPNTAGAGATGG
Described as above.

Experiment [6] has as its target T3, human PTPRG on the cell surface (U937 …). In words: flow cytometry on whole U937 cells, screen of the 28 clones (Ctrl row = 0); PTPRG is named as the antigen on U937 cells only in the later examples.
Experiment [7] concerns the target T6, human PTPRG extracellular domain (ECD) (residues 20~736 of human PTPRG) fused to hFc (human, UniProt P23470 20-736).
T6 construct: Produced in-house by transient transfection of Expi293 cells; also called hPTPRG-ECD-hFc; hPTPRG-ECD; not shown: human Fc (hFc)
T6 sequence: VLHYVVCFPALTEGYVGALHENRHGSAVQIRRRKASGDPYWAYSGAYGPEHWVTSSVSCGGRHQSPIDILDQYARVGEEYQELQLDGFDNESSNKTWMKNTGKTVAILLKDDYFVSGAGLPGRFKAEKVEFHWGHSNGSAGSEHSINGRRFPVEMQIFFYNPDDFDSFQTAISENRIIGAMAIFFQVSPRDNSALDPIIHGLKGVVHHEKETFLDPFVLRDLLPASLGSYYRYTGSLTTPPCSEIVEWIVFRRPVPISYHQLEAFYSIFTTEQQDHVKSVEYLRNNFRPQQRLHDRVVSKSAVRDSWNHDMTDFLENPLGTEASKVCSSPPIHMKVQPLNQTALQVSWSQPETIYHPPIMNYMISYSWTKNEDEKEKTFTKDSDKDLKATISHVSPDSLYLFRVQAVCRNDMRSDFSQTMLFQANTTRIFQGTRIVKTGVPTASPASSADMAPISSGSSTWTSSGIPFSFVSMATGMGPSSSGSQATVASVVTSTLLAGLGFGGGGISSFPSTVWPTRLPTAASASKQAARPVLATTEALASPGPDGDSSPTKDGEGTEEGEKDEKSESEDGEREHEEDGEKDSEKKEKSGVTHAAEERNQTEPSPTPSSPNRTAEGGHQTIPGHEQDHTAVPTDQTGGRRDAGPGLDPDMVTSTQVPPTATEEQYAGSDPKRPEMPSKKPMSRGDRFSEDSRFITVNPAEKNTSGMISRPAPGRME
In words: ELISA, absorbance at 405 nm, one condition per Fab and antigen.

The target in experiment [8] is T7, human Nectin-2 on the cell surface (U937 cells) (human, UniProt Q92692 32-538).
T7 construct: Endogenous Nectin-2 of U937 cells; also called PVRL2; CD112
T7 sequence: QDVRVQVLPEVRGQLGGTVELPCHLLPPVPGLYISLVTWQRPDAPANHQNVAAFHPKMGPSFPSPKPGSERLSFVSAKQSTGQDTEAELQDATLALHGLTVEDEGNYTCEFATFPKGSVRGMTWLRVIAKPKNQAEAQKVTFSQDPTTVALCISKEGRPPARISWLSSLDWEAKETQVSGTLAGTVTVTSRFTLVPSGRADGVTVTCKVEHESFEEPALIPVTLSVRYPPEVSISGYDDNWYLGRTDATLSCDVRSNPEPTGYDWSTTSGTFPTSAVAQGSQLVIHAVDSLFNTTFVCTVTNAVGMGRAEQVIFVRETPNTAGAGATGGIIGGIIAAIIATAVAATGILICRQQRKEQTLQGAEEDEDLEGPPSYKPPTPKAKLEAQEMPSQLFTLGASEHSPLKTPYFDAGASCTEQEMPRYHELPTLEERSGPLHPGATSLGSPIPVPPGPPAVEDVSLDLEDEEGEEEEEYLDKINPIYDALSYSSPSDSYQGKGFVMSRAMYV
In words: flow cytometry on whole U937 cells, screen of the 28 clones (Ctrl row = 0); Nectin-2 is named as the antigen on U937 cells only in the later examples.

Six molecules from patent US20260265410A1 (UNIVERSITY OF FLORIDA RESEARCH FOUNDATION, published 2026) can be followed below.

Residue numbers refer to the chain shown, from its start.

B1: Fab_130 (Fab, V domains shown)
VH: QEQQKESGGGLFKPTDTLTLTCTVSGFSLSSNAISWVRQAPGNGLEWIGAIDNSGSAYYATWAKGRSTITRATNLNTVTLKMTSVTAADTATYFCAREDVRADSIDLNMWGPGTLVTISS
VL: SFVLTQPASVQVNLGQTVSLTCTADTLSRSYASWYQQKPGQAPVLLIYRDTSRPSGVPDRFSGSSSGNTATLTISGAQAGDEADYYCATSDGSGSSYQFVFGGGTQLTVTG
notes: Chimeric rabbit/human Fab; also called P130; clone 130
B1: the binding result in experiment [1] is “no binding”; in experiment [2] it was “binds”; in experiment [4] it was “no binding”; in experiment [5], “no binding”. Further, the “flow cytometry binding value (the table prints no name or unit)” value in experiment [3] was found to be 12.6; in experiment [6], 78.3.

B2: Fab_2430 (Fab, V domains shown)
VH: AQSLEESGGRLVTPGTPLTLTCTVSGIDLSSYHMNWVRQAPGKGLEWIGIIGASAGTYYARWAKGRFTISKTSTTVDLKITSPTTEDTATYFCARSGGSMQLNLWGPGTLVTISS
VL: B1 VL with S90D, G92S, F99Y
notes: Chimeric rabbit/human Fab; also called N2430
Turning to B2, the binding result in experiment [7] and in experiment [4] was “no binding” in each case. For the same molecule, the “flow cytometry binding value (the table prints no name or unit)” value in experiment [8] came to 92.6.

B3: Fab_277 (Fab, V domains shown)
VH: AQSLEESGGRLVTPGTPLTLTCTASGFTLSSYHMSWVRQAPGKGLEWIGIISSGGSIYYASWAKGRFTISRTSTTVDLKMTSPTTEDTATYFCARYAAYSIGMDLWGPGTLVTVSS
VL: B1 VL with S1Q, T17M, S65T, S90D, G92N, F99Y
notes: Chimeric rabbit/human Fab; also called N277
Turning to B3, the binding result in experiment [7] and in experiment [4] was “no binding” throughout. The “flow cytometry binding value (the table prints no name or unit)” value in experiment [8] is 87.8.

B4: Fab_2282 (Fab, V domains shown)
VH: QEQLKESGGRLVTPGTPLTLTCTASGFTISSYHMSWVRQAPGKGLEWIGVISASGGSTYYASWAKGRFTISKTSTTVDLKITSPTTEDTATYFCARESYGGYNLWGPGTLVTVSS
VL: B1 VL with T17M, S65T, S90D, G92N, F99Y
notes: Chimeric rabbit/human Fab; also called N2282; mAb_2282
With B4, the binding result in experiment [7] and in experiment [4] was “no binding” each time. Moreover, the “flow cytometry binding value (the table prints no name or unit)” value in experiment [8] was 92.2.

B5: Fab_1955 (Fab, V domains shown)
VH: AQSLEESGGRLVTPGTPLTLTCTASGFSLYSYDMSWVRQAPGKGLEWIGLIDGGGNTYYASWAKGRFTISKTSSTTVDLKMTSLTTEDTATYFCARELWPAYSSGAFNIWGPGTLVTISS
VL: B1 VL with S30R, S52R, A88V, S90T, Q98L, F99V
notes: Chimeric rabbit/human Fab; also called P1955; clone 1955
For the molecule B5, the binding result in experiment [1] is reported as “no binding”; in experiment [2] it was “binds”; in experiment [4] it was “no binding”; in experiment [5], “no binding”. Moreover, the entries for the “flow cytometry binding value (the table prints no name or unit)” value in experiment [3] and in experiment [6] were 12.9 and 91.3, respectively.

B6: Fab_11 (Fab, V domains shown)
VH: AQSLEESGGRLVTPGTPLTLTCTVSGFSLSSYAMTWVRQAPGEGLEWIGTIGAGGSPYYASWAKGRFTISKTATTVNLKIISPTTEDTATYFCAREGGGSYYFDLWGPGTLVTVSS
VL: B1 VL with S96T, Y97F, Q98H
notes: Chimeric rabbit/human Fab; also called P11; mAb_11
As for B6, the binding result in experiment [1], in experiment [4] and in experiment [5] was “no binding” each time. Also, the “flow cytometry binding value (the table prints no name or unit)” value in experiment [3] was -2.13; in experiment [6] it was 92.9.
